ChEMBL document CHEMBL1143972, “Electronic effects of para-substitution on acetophenones in the reaction of rat liver 3alpha-hydroxysteroid dehydrogenase” (Bioorg Med Chem, 2008)

What was measured:
[1] = biological target: T1, 3-alpha-hydroxysteroid dehydrogenase (Rattus norvegicus) (UniProt P23457); assay: Ratio of Vmax to Km for rat liver 3-alpha-HSD for formation of corresponding (S)-alcohol products
T1 sequence (whole entry): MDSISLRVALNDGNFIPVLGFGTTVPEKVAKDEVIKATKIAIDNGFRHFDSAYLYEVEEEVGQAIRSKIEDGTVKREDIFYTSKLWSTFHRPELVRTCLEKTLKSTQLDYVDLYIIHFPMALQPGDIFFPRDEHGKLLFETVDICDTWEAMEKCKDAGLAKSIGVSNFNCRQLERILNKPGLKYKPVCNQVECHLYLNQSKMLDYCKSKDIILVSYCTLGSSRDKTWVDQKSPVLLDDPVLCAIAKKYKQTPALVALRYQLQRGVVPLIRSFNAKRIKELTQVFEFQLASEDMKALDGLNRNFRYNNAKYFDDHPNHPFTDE

[2] = biological target: T1, 3-alpha-hydroxysteroid dehydrogenase (Rattus norvegicus); assay: Ratio of Vmax to Km for rat liver 3-alpha-HSD for formation of corresponding (R)-alcohol products
[3] = substrate: CC(=O)c1ccccc1; assay: (§1) Activity of rat liver 3-alpha-HSD assessed as formation of corresponding (S)-alcohol products
[4] = substrate: CC(=O)c1ccc(Br)cc1; assay: as §1
[5] = substrate: CC(=O)c1ccc(N(C)C)cc1; assay: as §1
[6] = substrate: COc1ccc(C(C)=O)cc1; assay: as §1
[7] = substrate: CC(=O)c1ccc(C)cc1; assay: as §1
[8] = substrate: CC(=O)c1ccc(C#N)cc1; assay: as §1
[9] = substrate: CC(=O)c1ccc([N+](=O)[O-])cc1; assay: as §1
[10] = substrate: CC(=O)c1ccc(N(C)C)cc1; assay: (§2) Activity of rat liver 3-alpha-HSD assessed as formation of corresponding (R)-alcohol products
[11] = substrate: CC(=O)c1ccc(C)cc1; assay: as §2
[12] = substrate: CC(=O)c1ccc(N(C)C)cc1; assay: (§3) Activity of rat liver 3-alpha-HSD assessed as formation of corresponding (R)-alcohol products per mg of protein
[13] = substrate: CC(=O)c1ccc(C)cc1; assay: as §3
[14] = substrate: CC(=O)c1ccccc1; assay: (§4) Activity of rat liver 3-alpha-HSD assessed as formation of corresponding (S)-alcohol products per mg of protein
[15] = substrate: CC(=O)c1ccc(Br)cc1; assay: as §4
[16] = substrate: CC(=O)c1ccc(N(C)C)cc1; assay: as §4
[17] = substrate: COc1ccc(C(C)=O)cc1; assay: as §4
[18] = substrate: CC(=O)c1ccc(C)cc1; assay: as §4
[19] = substrate: CC(=O)c1ccc(C#N)cc1; assay: as §4
[20] = substrate: CC(=O)c1ccc([N+](=O)[O-])cc1; assay: as §4

Question: `COc1ccc(C(C)=O)cc1` was tested. Which Ratio [1] did it give?
Answer: 0.97 µL/min

Question: Which Ratio [1] does the source give for `CC(=O)c1ccc([N+](=O)[O-])cc1` here?
Answer: 61700 µL/min

Question: For `CC(=O)c1ccc(Br)cc1`, which Ratio [1] is on record?
Answer: 30.6 µL/min

Question: `CC(=O)c1ccc(C#N)cc1` was tested. Which Ratio [1] did it give?
Answer: 9440 µL/min

Question: Which results are given for `CC(=O)c1ccc(C)cc1`?
Answer: Ratio [1]: 7.21 µL/min; Ratio [2]: 1.01 µL/min

Question: How did the Ratio [1] turn out when `CC(=O)c1ccc(N(C)C)cc1` was run?
Answer: 0.41 µL/min

Question: And the Ratio [2]?
Answer: 0.09 µL/min

Question: For `CC(=O)c1ccccc1`, which Ratio [1] is on record?
Answer: 49 µL/min

B1: 3-alpha-hydroxysteroid dehydrogenase (Rattus norvegicus), P23457 (protein)
chain: MDSISLRVALNDGNFIPVLGFGTTVPEKVAKDEVIKATKIAIDNGFRHFDSAYLYEVEEEVGQAIRSKIEDGTVKREDIFYTSKLWSTFHRPELVRTCLEKTLKSTQLDYVDLYIIHFPMALQPGDIFFPRDEHGKLLFETVDICDTWEAMEKCKDAGLAKSIGVSNFNCRQLERILNKPGLKYKPVCNQVECHLYLNQSKMLDYCKSKDIILVSYCTLGSSRDKTWVDQKSPVLLDDPVLCAIAKKYKQTPALVALRYQLQRGVVPLIRSFNAKRIKELTQVFEFQLASEDMKALDGLNRNFRYNNAKYFDDHPNHPFTDE
Question: For B1, which Km [3] is on record?
Answer: 10.4 mM

Question: And the Km [4]?
Answer: 10.3 mM

Question: And the Km [5]?
Answer: 21.9 mM

Question: And the Km [6]?
Answer: 5.59 mM

Question: And the Km [7]?
Answer: 27.7 mM

Question: What about the Km [8] of the same molecule?
Answer: 0.11 mM

Question: And the Km [9]?
Answer: 0.02 mM

Question: And the Km [10]?
Answer: 19.2 mM

Question: What about the Km [11] of the same molecule?
Answer: 13.2 mM

Question: What about the Vmax [12] of the same molecule?
Answer: 0.002 µmol/min

Question: What about the Vmax [13] of the same molecule?
Answer: 0.013 µmol/min

Question: And the Vmax [14]?
Answer: 0.51 µmol/min

Question: What about the Vmax [15] of the same molecule?
Answer: 0.315 µmol/min

Question: And the Vmax [16]?
Answer: 0.009 µmol/min

Question: And the Vmax [17]?
Answer: 0.005 µmol/min

Question: And the Vmax [18]?
Answer: 0.2 µmol/min

Question: What about the Vmax [19] of the same molecule?
Answer: 1.08 µmol/min

Question: And the Vmax [20]?
Answer: 1.13 µmol/min
